Values of other authors in publication PMC4081073.

Biological target: EcoRI restriction endonuclease (Escherichia coli) (UniProt P00642)

Kd: 100 nM
Substance: EcoRI restriction endonuclease (from UniProt P00642)
